Assay results reported in patent publication US20190002534A1 (UNIVERSITY OF MASSACHUSETTS, published 2019).

Tests used:
[1] = biological target: T1, G glycoprotein of rabies virus street isolate DR Brazil (rabies virus, isolate DR Brazil …); test: cell-based or functional assay
[2] = biological target: T1, G glycoprotein of rabies virus street …; test: cell-based or functional assay; remark: listed apart in the source

| Binder | EC50 neutralization by RFFIT [1] | EC50 neutralization by RFFIT (Test A) [2] |
| --- | --- | --- |
| anti-rabies virus human monoclonal antibody 17C7 (antibody, V domains shown) VH: QVQLVESGGGVVQPGRSLRLSCAASGFTFSTYAMHWVRQAPGKGLEWVAVVSYDGRTKDYADSVKGRFTISRDNSKNTLYLQMNSLRTEDTAVYFCARERFSGAYFDYWGQGTLVTVSS VL: EIVLTQSPATLSLSPGERATLSCRASQSVSSYLAWYQQKPGQAPRLLIYDASNRATGIPARFSGSGSGTDFTLTISSLEPEDFAVYSCQQRNNWPPTFGGGTKVEIK | 0.222 µg/mL | 0.222 µg/mL |
| anti-rabies virus human monoclonal antibody 2B10 (antibody, V domains shown) VH: EVQLVQSGGGLVHPGGSLRLSCAGSGFTFSYFAMHWVRQAPGKGLEWVSTIGTGGGTYYADSVKGRFTISRDNAKNSLYLQMNSLRAEDMAVYYCARDNALRSFDWLFYSFDYWGQGTLVTVSS VL: EIVLTQSPGTLSLSPGERATLSCRASQSISSSYLAWYQQKPGQAPRLLIYGASSRATGIPDRFSGSGSGTDFTLTISRLEPEDFAVYYCQRYGSSYTFGQGTKLEIK | 0.004 µg/mL | 0.004 µg/mL |
